The target in the test is T1, SARS-CoV-2 native Spike (S) trimer (Acro Biosystems) (SARS-CoV-2, UniProt P0DTC2 16-1213).
T1 construct: also called Spike trimer
In words: ELISA on spike trimer. A general note: ELISA stands for enzyme-linked immunosorbent assay.

B1: AB-009681 (antibody, V domains shown)
VH: QVQLVQSGAEVKKPGSSVKVSCKASGGTFSSYAISWVRQAPGQGLEWMGGIIPIFGTANYAQKFQGRVTITADESTSTAYMELSSLRSEDTAVYYCASVGGDYDLDYWGQGTLVTVSS
VL: EIVLTQSPATLSLSPGERATLSCRASQSVSSYLAWYQQKPGQAPRLLIYDASNRATGIPARFSGSGSGTDFTLTISSLEPEDFAVYYCQQRSNWPPYTFGQGTKLEIK
On to B1, for which the binding result is recorded as “no binding”.

The record behind these values is patent US20240301038A1 (ATRECA, published 2024).
